One block for each binder: values may come before it.
What was measured:
[1] = biological target: T1, human CD96v1 expressed on HEK cells (human, UniProt P40200 22-585); test: flow cytometry on transiently transfected HEK cells (normalised MFI), upper left panel
T1 construct: whole, on cells
T1 sequence (looked up): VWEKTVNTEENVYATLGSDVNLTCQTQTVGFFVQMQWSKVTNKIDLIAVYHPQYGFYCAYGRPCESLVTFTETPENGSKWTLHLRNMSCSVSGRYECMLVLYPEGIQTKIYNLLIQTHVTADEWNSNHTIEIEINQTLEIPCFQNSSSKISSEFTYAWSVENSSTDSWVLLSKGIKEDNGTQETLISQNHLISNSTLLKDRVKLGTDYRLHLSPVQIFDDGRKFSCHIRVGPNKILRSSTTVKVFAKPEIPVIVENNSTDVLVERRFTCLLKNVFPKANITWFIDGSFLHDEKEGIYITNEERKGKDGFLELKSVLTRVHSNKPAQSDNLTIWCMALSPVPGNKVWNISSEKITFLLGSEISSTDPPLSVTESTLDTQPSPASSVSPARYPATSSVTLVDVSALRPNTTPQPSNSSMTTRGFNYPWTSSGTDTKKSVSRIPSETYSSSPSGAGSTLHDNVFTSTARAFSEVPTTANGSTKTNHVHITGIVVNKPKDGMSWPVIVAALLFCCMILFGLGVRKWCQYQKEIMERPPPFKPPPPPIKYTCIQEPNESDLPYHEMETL

[2] = biological target: T2, cynomolgus monkey CD96v2 expressed on cells (cynomolgus monkey, UniProt A0A2K5TWV6 22-569); test: as above
T2 construct: also called CHO-cyCD96; Cyno CD96v2
T2 sequence: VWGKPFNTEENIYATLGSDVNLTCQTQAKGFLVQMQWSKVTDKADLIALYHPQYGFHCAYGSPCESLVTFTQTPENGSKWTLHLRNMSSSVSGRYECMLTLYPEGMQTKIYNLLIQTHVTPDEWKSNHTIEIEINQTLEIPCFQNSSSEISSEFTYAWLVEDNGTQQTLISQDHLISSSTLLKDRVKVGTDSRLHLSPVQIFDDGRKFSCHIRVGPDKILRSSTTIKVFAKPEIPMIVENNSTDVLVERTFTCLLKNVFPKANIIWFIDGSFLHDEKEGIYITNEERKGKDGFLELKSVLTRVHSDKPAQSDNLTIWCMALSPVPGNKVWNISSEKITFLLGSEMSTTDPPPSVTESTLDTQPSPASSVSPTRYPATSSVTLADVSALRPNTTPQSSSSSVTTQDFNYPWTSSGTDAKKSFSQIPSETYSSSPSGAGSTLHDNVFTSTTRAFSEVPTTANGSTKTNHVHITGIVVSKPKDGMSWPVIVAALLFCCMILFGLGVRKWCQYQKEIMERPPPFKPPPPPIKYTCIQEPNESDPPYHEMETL

[3] = biological target: T3, native cynomolgus monkey CD96 on primary cynomolgus monkey T cells (cynomolgus monkey, UniProt A0A2K5TWV6 22-569); test: flow cytometry on activated primary cynomolgus monkey T cells (PE median MFI), pooled donor
T3 construct: whole, on cells
T3 sequence: T2 sequence

[4] = biological target: T2, cynomolgus monkey CD96v2 expressed on …; test: flow cytometry, CHO cells expressing cynomolgus CD96v2
Description: CHO cells expressing human CD96v2 or cynomolgus monkey CD96v2 were prepared in PBS. The cynomolgus monkey CD96v2 cells were stained with 1 μM violet proliferation dye (VPD450). […] The stained CHO-cyCD96 and unstained CHO-huCD96 cells were combined and added to wells of a 384-well assay plate together with dilutions of test anti-CD96 binding proteins for 1h at 4° C. Cells were further incubated with anti-IgG APC conjugate antibody and the amount of surface bound antibody on each of the CHO-cyCD96 and CHO-huCD96 cells was determined by flow cytometry. Median fluorescence intensity (MFI) values were fitted using a 4 parameter logistic model to calculate the EC50 of binding.

- EC50 (read off the curve) [1]: ~4 nM
- EC50 (read off the curve) [2]: ~8 nM
- EC50 (read off the curve) [3]: ~0.06 nM
B1: 42Y073-86F08-66 (antibody, human IgG1, kappa)
heavy: not shown
light: DIQLTQSPSSLSASVGDRVTITCRASQSISSYLNWYQQKPGKAPKLLIYAASSLQSGVPSRFSGSGSGTDFTLTISSLQPEDFATYYCQQVLHTITFGGGTKVEIKRTVAAPSVFIFPPSDEQLKSGTASVVCLLNNFYPREAKVQWKVDNALQSGNSQESVTEQDSKDSTYSLSSTLTLSKADYEKHKVYACEVTHQGLSSPVTKSFNRGEC
notes: expressed in CHO or HEK cells; also called GSK 6097608; GSK6097608

- EC50 [4]: 0.08 nM
B2: 42Y073-86F08-3 (antibody, V domains shown)
VH: QVQLVQSGAEVKKPGSSVKVSCKASGGTFVNYAISWVRQAPGQGLEWMGGIIPALGTANYAQKFQGRVTITADESTSTAYMELSSLRSEDTAVYYCARGAGYYGDKDPMDVWGQGTTVTVSS
VL: DIQLTQSPSSLSASVGDRVTITCRASQSISSYLNWYQQKPGKAPKLLIYAASSLQSGVPSRFSGSGSGTDFTLTISSLQPEDFATYYCQQVLHTITFGGGTKVEIK

From patent US20240166747A1 (GlaxoSmithKline, published 2024)
